Positions count from the first letter of the chain named. Where “and” joins values, the source holds several entries; their conditions need not be identical. Equal values may be shown once. Read-outs that look alike come from different tables or passages of the source.

Assay [1] has as its system H5N1 (VN1203/04). On the set-up: key to Liver: viral antigens: +++: many; ++: moderate; +: few; ±: rare; −: negative; key to Liver: pathological changes / Lung: pathological changes / Brain: pathological changes: +++: severe; ++: moderate; +: mild; ±: scant; −: not observed. The settings on record: mouse, in vivo.
In assay [2] the test system is H5N1 (VN1203/04). On the set-up: key: +++: many; ++: moderate; +: few; ±: rare; −: negative. The settings on record: mouse, in vivo.
The test system of assay [3] is H5N1 (VN1203/04). The arrangement: key: +++: severe; ++: moderate; +: mild; ±: scant; −: not observed. The conditions noted are these: mouse, in vivo.
Assay [4] relates to H5N1 (A/Vietnam/1203/04, VN1203). The arrangement: species or system mouse (balb/c). The conditions noted are these: mouse, in vivo.
The test system is the same in assay [5]. On the set-up: species or system mouse (balb/c). The settings on record: mouse, in vivo. The source holds these as a separate data set.
Assay [6] has as its system H1N1 (A/Solomon Islands/06). Put plainly: H1N1 challenge IV at 10LD50 (Example 16). Type of assay: in vivo, mouse (balb/c). The settings on record: 10MLD50; antibody on days 3 and 5.
The test system of assay [7] is H1N1 (A/NWS/33). As to the kind of experiment: H1N1 challenge V at 2 or 4 LD50 (Example 17). The format is in vivo, mouse (balb/c). The conditions noted are these: antibody 20 mg/kg, oseltamivir 10 mg/kg bid.
Assay [8] relates to H1N1 (A/PR/8/34). As to the kind of experiment: H1N1 challenge VI at 5LD50 (Example 18). The settings on record: 5MLD50; antibody 20 mg/kg days 1, 3, 5; oseltamivir 10 mg/kg four hours post-infection. Type of assay: in vivo, mouse (balb/c).
Assay [9] has as its system H5N1 (VN1203/04). The conditions noted are these: mouse, in vivo.
For assay [10], the system named is H5N1 (A/Vietnam/1203/04, VN1203). On the set-up: species or system mouse (balb/c). The conditions noted are these: mouse, in vivo. The source holds these as a separate data set.
For assay [11] the test system is unchanged. The arrangement: species or system mouse (balb/c). The settings on record: mouse, in vivo. The source holds these as a separate data set.
The target of assay [12] is truncated M2 peptide SEQ ID NO 271. As to the kind of experiment: peptide ELISA, 5 µg/mL. (In general: In an ELISA, binding on a coated surface is turned into a signal by an enzyme label.)
Assay [13] has as its target truncated M2 peptide SEQ ID NO 300. Put plainly: peptide ELISA, 5 µg/mL.
The target in assay [14] is truncated M2 peptide SEQ ID NO 301. Put plainly: peptide ELISA, 5 µg/mL.
Assay [15] has as its target truncated M2 peptide SEQ ID NO 302. Put plainly: peptide ELISA, 5 µg/mL.
Assay [16] has as its target truncated M2 peptide SEQ ID NO 303. Put plainly: peptide ELISA, 5 µg/mL.
Assay [17] deals with truncated M2 peptide SEQ ID NO 304. As to the kind of experiment: peptide ELISA, 5 µg/mL.
The target in assay [18] is truncated M2 peptide SEQ ID NO 305. As to the kind of experiment: peptide ELISA, 5 µg/mL.
Assay [19] concerns the target truncated M2 peptide SEQ ID NO 306. As to the kind of experiment: peptide ELISA, 5 µg/mL.
Assay [20] concerns the target truncated M2 peptide SEQ ID NO 310. Put plainly: peptide ELISA, 5 µg/mL.
The target of assay [21] is truncated M2 peptide SEQ ID NO 311. As to the kind of experiment: peptide ELISA, 5 µg/mL.
Assay [22] has as its target truncated M2 peptide SEQ ID NO 312. As to the kind of experiment: peptide ELISA, 5 µg/mL.
Assay [23] deals with truncated M2 peptide SEQ ID NO 313. Put plainly: peptide ELISA, 5 µg/mL.
The target of assay [24] is truncated M2 peptide SEQ ID NO 314. As to the kind of experiment: peptide ELISA, 5 µg/mL.
Assay [25] concerns the target truncated M2 peptide SEQ ID NO 315. Put plainly: peptide ELISA, 5 µg/mL.
The target of assay [26] is truncated M2 peptide SEQ ID NO 316. Put plainly: peptide ELISA, 5 µg/mL.
For assay [27], the target named is T1, M2 protein on influenza A/Puerto Rico/8/34 (H1N1) virus particles (influenza A virus A/Puerto Rico/8/34 …, UniProt P06821 1-97). As to the kind of experiment: ELISA on purified A/Puerto Rico/8/34 virus.
For assay [28], the target named is M2 protein of influenza A/Puerto Rico/8/34 (H1N1) on cells (influenza A virus A/Puerto Rico/8/34 …, UniProt P06821 1-97). As to the kind of experiment: FACS, MDCK cells infected with A/Puerto Rico/8/34. Background: A flow cytometer gives signals particle by particle.
Assay [29] concerns the target T2, M2 protein of influenza A/Fort Worth/1/50 (H1N1), expressed on 293 cells (influenza A virus A/Fort Worth/1/50 …).
T2 chain: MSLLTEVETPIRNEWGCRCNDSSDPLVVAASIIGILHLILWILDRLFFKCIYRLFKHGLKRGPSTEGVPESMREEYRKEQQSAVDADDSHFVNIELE
Put plainly: cell staining images, 293-HEK cells stably expressing M2.

In assay [30] the target is T1, M2 protein on influenza A/Puerto …. As to the kind of experiment: ELISA on A/PR/8 virus, normalised to 8i10 at 10 µg/ml [D00002 FIG. 2B].
The target in assay [31] is M2 peptide SEQ ID NO 273. As to the kind of experiment: peptide ELISA, 5 µg/mL.
Assay [32] addresses truncated M2 peptide SEQ ID NO 298. As to the kind of experiment: peptide ELISA, 5 µg/mL.
Assay [33] has as its target truncated M2 peptide SEQ ID NO 299. Put plainly: peptide ELISA, 5 µg/mL.
In assay [34] the target is truncated M2 peptide SEQ ID NO 307. As to the kind of experiment: peptide ELISA, 5 µg/mL.
Assay [35] concerns the target truncated M2 peptide SEQ ID NO 308. Put plainly: peptide ELISA, 5 µg/mL.
Assay [36] deals with truncated M2 peptide SEQ ID NO 309. As to the kind of experiment: peptide ELISA, 5 µg/mL.

On to `CCOC(=O)C1=C[C@@H](OC(CC)CC)[C@H](NC(C)=O)[C@@H](N)C1` [Osel], for which, in assay [1], the “Brain: pathological changes” value was “−/− and ++/++ and +/++”; the “Liver: pathological changes” value was “−/−”; the “Liver: viral antigens” value is listed as “−/−”; the “Lung: pathological changes” value was “+/+ and +/++ and ++/++”. Moreover, in [2], the “Brain: viral antigens” value is on record as “−/−” and the “Lung: viral antigens” value is reported as “+/+”. Besides, in assay [3], the “Brain: viral antigens” value is “++/++ and +/++”; the “Lung: viral antigens” value was “+/++ and ++/++”.
In the case of `CCOC(=O)C1=C[C@@H](OC(CC)CC)[C@H](NC(C)=O)[C@@H](N)C1` [oseltamivir], the “survival rate at day 14” value is 20% in [4]; 20% in assay [5]; 90% and 50% in assay [9]. Also, in [6], the “mice surviving until day 21” value is reported as “about 10%”. For the same molecule, the “survival rate at day 21” value in [7] (2MLD50) is reported as 90%; in assay [7] (4MLD50), 100%; in assay [8] it was 80%. In addition, the “protection from death (in words)” value in assay [10] is listed as “completely protected mice”. For the same molecule, in assay [10], the “protection from weight loss (in words)” value is “completely protected mice”. Also, in [10], the “survival rate at day 15” value is 60%. In addition, in assay [10], the “weight remaining (in words)” value is on record as “retained more weight”. For the same molecule, in assay [11], the “survival (in words)” value was “extinction of the population prior to the end of the therapy”.

B1: 23K12 (antibody, V domains shown)
VH: EVQLVESGGGLVQPGGSLRISCAASGFTVSSNYMSWVRQAPGKGLEWVSVIYSGGSTYYADSVKGRFSFSRDNSKNTVFLQMNSLRAEDTAVYYCARCLSRMRGYGLDVWGQGTTVTVS
VL: DIQMTQSPSSLSASVGDRVTITCRTSQSISSYLNWYQQKPGKAPKLLIYAASSLQSGVPSRFSGSGSGTDFTLTISGLQPEDFATYYCQQSYSMPAFGQGTKLEIK
With B1, the ELISA A450 in assay [12] came out at 0.3; in assay [13] it was 0.2; in [14] it was 0.34; in assay [15], 0.35; in assay [16], 0.34; in assay [17] it was 0.36. The ELISA A450 is 0.34 in [18]; 0.39 in assay [19]; 0.24 in assay [20]; 0.25 in assay [21]; 0.24 in [22]; 0.3 in assay [23]. Also, the results for the ELISA A450 in assay [24], in assay [25] and in assay [26] were 0.24, 0.2 and 0.2, respectively. Further, the 50% effective concentration (EC50) (as a rule, the concentration giving half of the maximal effect) in assay [27] is roughly 0.1 µg/mL. Further, the EC50 (read off the curve) (commonly the concentration at which the effect is half-maximal) in [28] was roughly 0.2 µg/mL; in assay [30], roughly 0.06 µg/mL. For the same molecule, the binding result in assay [29] was “binds”.

B2: 8I10 (antibody, V domains shown)
VH: QVQLQESGPGLVKPSETLSLTCTVSGSSISNYYWSWIRQSPGKGLEWIGFIYYGGNTKYNPSLKSRVTISQDTSKSQVSLTMSSVTAAESAVYFCARASCSGGYCILDYWGQGTLVTVS
VL: DIQMTQSPSSLSASVGDRVTITCRASQNIYKYLNWYQQRPGKAPKGLISAASGLQSGVPSRFSGSGSGTDFTLTITSLQPEDFATYYCQQSYSPPLTFGGGTRVEIK
On to B2, for which the ELISA A450 in [31] turned out to be 0.11; in assay [12], 0.12; in assay [32] it was 0.09; in assay [33], 0.09; in assay [13], 0.09; in assay [14], 0.11. The ELISA A450 in assay [15] was 0.13; in assay [16], 0.12; in assay [17], 0.14; in assay [18], 0.14; in [19] it was 0.14; in assay [34], 0.26. Moreover, the ELISA A450 in [35] turned out to be 0.29; in assay [36], 0.12; in assay [20], 0.11; in assay [21] it was 0.11; in [22] it was 0.1; in assay [23], 0.13. The ELISA A450 in assay [24], in [25] and in [26] was 0.1 in each case. In addition, the EC50 in assay [27] was roughly 0.1 µg/mL. Also, the “EC50 (read off the curve)” value is roughly 0.1 µg/mL in [28] and roughly 0.04 µg/mL in [30]. Further, the binding result in [29] was “binds”.

B3: 21B15 (antibody, V domains shown)
VH: B2 VH
VL: B2 VL with M4V, E105D
Consider B3, for which, in assay [29], the binding result is recorded as “binds”.
